Columns and labels:
[1] = CHX chase immunoblot, turnover rate; details: glycan lost; control: SEMA7A-WT
[2] = coculture, Annexin V/PI flow cytometry; details: glycan lost; control: SEMA7A-WT tumor cells
[3] = flow cytometry of PD-1, LAG3, CTLA4, TIM3; details: glycan lost; control: SEMA7A-WT tumor cells
[4] = ELISA of secreted SEMA7A; details: glycan lost; control: SEMA7A-WT
[5] = non-reducing vs reducing western blot; details: glycan lost; control: SEMA7A-WT
[6] = CRT expression and nuclear HMGB1 with doxorubicin; details: glycan lost; control: SEMA7A-WT cells
[7] = CHX plus MG132/HCQ/BTZ, immunoblot; degradation pathway; details: glycan lost; control: SEMA7A-WT
[8] = cleaved Caspase-3 and proliferation; details: glycan lost; control: SEMA7A-WT cells
[9] = real-time PCR of PD-L1 isoforms; details: glycan lost; control: SEMA7A-WT cells
[10] = confocal colocalisation with calreticulin/GM130; membrane trafficking; details: glycan lost; control: SEMA7A-WT
[11] = IL-2 ELISA after coculture; details: glycan lost; control: SEMA7A-WT tumor cells
[12] = cell viability; details: glycan lost; control: SEMA7A-WT cells

B1: SEMA7A: 5NQ (protein)
parent chain: MTPPPPGRAAPSAPRARVPGPPARLGLPLRLRLLLLLWAAAASAQGHLRSGPRIFAVWKGHVGQDRVDFGQTEPHTVLFHEPGSSSVWVGGRGKVYLFDFPEGKNASVRTVNIGSTKGSCLDKRDCENYITLLERRSEGLLACGTNARHPSCWNLVNGTVVPLGEMRGYAPFSPDENSLVLFEGDEVYSTIRKQEYNGKIPRFRRIRGESELYTSDTVMQNPQFIKATIVHQDQAYDDKIYYFFREDNPDKNPEAPLNVSRVAQLCRGDQGGESSLSVSKWNTFLKAMLVCSDAATNKNFNRLQDVFLLPDPSGQWRDTRVYGVFSNPWNYSAVCVYSLGDIDKVFRTSSLKGYHSSLPNPRPGKCLPDQQPIPTETFQVADRHPEVAQRVEPMGPLKTPLFHSKYHYQKVAVHRMQASHGETFHVLYLTTDRGTIHKVVEPGEQEHSFAFNIMEIQPFRRAAAIQTMSLDAERRKLYVSSQWEVSQVPLDLCEVYGGGCHGCLMSRDPYCGWDQGRCISIYSSERSVLQSINPAEPHKECPNPKPDKAPLQKVSLAPNSRYYLSCPMESRHATYSWRHKENVEQSCEPGHQSPNCILFIENLTAQQYGHYFCEAQEGSYFREAQHWQLLPEDGIMAEHLLGHACALAASLWLGVLPTLTLGLLVH
degradation_or_half_life [1]: increases
other: susceptibility to CD8+ T-cell killing [2]: increases
other: exhaustion of cocultured CD8+ T cells [3]: decreases
expression_or_secretion [4]: no change
oligomerisation [5]: abolishes
other: immunogenic cell death markers [6]: increases
degradation_or_half_life [7]: changes
other: sensitivity to EGFR inhibitors [8]: increases
other: PD-L1 alternative splicing [9]: changes
localisation_or_trafficking [10]: decreases
other: IL-2 release by cocultured Jurkat cells [11]: increases
other: sensitivity to doxorubicin [12]: increases
